Measured values as given in the supplement of paper PMC9112550, “Optimization of the antimicrobial peptide Bac7 by deep mutational scanning” (BMC Biology, 2022).

Tested on: Escherichia coli TOP10
Experiment: shrunken log2 fold change of peptide-encoding DNA abundance (4.5 h post-induction vs induction); higher = less antimicrobial activity (less host growth inhibition)
Conditions: time post-induction: 4.5 h; library: site-saturation at positions 5, 18, 19, 20
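Note: peptides expressed intracellularly from a pBAD plasmid library in pooled LB shake-flask culture, induced with 0.3% L-arabinose, DNA abundance read by NGS, three biological replicates, DESeq2 with apeglm shrinkage.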

| Sequence | shrunken log2 fold change |
| --- | --- |
| RRIRKRPPRLPRPRPRPVWHPRP | 0.0861 |
| RRIRGRPPRLPRPRPRPNQRPRP | 0.27 |
| RRIRGRPPRLPRPRPRPCQFPRP | 0.33 |
| RRIRARPPRLPRPRPRPMTTPRP | 0.505 |
| RRIRQRPPRLPRPRPRPADSPRP | -0.00947 |
| RRIRVRPPRLPRPRPRPYQNPRP | -0.141 |
| RRIRHRPPRLPRPRPRPRVPPRP | -0.134 |
| RRIRVRPPRLPRPRPRPYHWPRP | -0.633 |
| RRIRSRPPRLPRPRPRPIGWPRP | 0.142 |
| RRIRSRPPRLPRPRPRPNVRPRP | -0.0771 |
| RRIRRRPPRLPRPRPRPCNPPRP | -0.466 |
| RRIRIRPPRLPRPRPRPPCEPRP | 0.00219 |
| RRIRHRPPRLPRPRPRPSQNPRP | -0.0324 |
| RRIRFRPPRLPRPRPRPTRQPRP | 0.298 |
| RRIRVRPPRLPRPRPRPEGRPRP | 0.0493 |
| RRIRQRPPRLPRPRPRPQHAPRP | -0.476 |
| RRIRYRPPRLPRPRPRPMPEPRP | 0.0501 |
| RRIRNRPPRLPRPRPRPFAVPRP | -0.398 |
| RRIRCRPPRLPRPRPRPHGWPRP | 0.267 |
| RRIRPRPPRLPRPRPRPQTYPRP | -0.256 |
| RRIRQRPPRLPRPRPRPNHRPRP | -0.0657 |
| RRIRVRPPRLPRPRPRPACIPRP | -0.0537 |
| RRIRSRPPRLPRPRPRPTKGPRP | -0.0226 |
| RRIRFRPPRLPRPRPRPTPLPRP | 0.3 |
| RRIRYRPPRLPRPRPRPERMPRP | -0.459 |

| Sequence | shrunken log2 fold change |
| --- | --- |
| RRIRHRPPRLPRPRPRPPDPPRP | 0.832 |
| RRIRTRPPRLPRPRPRPCMDPRP | -0.459 |
| RRIRWRPPRLPRPRPRPELMPRP | 0.0289 |
| RRIRMRPPRLPRPRPRPLEKPRP | 1.07 |
| RRIRFRPPRLPRPRPRPHHLPRP | -1.06 |
| RRIRSRPPRLPRPRPRPGDDPRP | 0.0869 |
| RRIRWRPPRLPRPRPRPTGAPRP | 0.337 |
| RRIRMRPPRLPRPRPRPGTIPRP | 0.228 |
| RRIRNRPPRLPRPRPRPKERPRP | 0.0296 |
| RRIRRRPPRLPRPRPRPLHCPRP | 0.0886 |
| RRIRPRPPRLPRPRPRPKAGPRP | 0.285 |
| RRIRPRPPRLPRPRPRPHNGPRP | -0.0321 |
| RRIRSRPPRLPRPRPRPWAGPRP | -0.255 |
| RRIRFRPPRLPRPRPRPFEPPRP | -0.0506 |
| RRIRWRPPRLPRPRPRPQLHPRP | 0.123 |
| RRIRGRPPRLPRPRPRPPFYPRP | 0.397 |
| RRIRSRPPRLPRPRPRPFSNPRP | -0.218 |
| RRIRKRPPRLPRPRPRPHCNPRP | -0.275 |
| RRIRDRPPRLPRPRPRPVNNPRP | 0.0566 |
| RRIRVRPPRLPRPRPRPEDPPRP | 0.476 |
| RRIRGRPPRLPRPRPRPWVIPRP | -0.257 |
| RRIRNRPPRLPRPRPRPIQWPRP | 0.0441 |
| RRIRCRPPRLPRPRPRPTSFPRP | -0.306 |
| RRIRLRPPRLPRPRPRPPTLPRP | 0.4 |
| RRIRGRPPRLPRPRPRPCPTPRP | 0.0246 |

| Sequence | shrunken log2 fold change |
| --- | --- |
| RRIRQRPPRLPRPRPRPYMPPRP | -0.0463 |
| RRIRLRPPRLPRPRPRPWNCPRP | -0.493 |
| RRIRKRPPRLPRPRPRPMDCPRP | 0.0101 |
| RRIRGRPPRLPRPRPRPVKVPRP | 0.425 |
| RRIRKRPPRLPRPRPRPSGVPRP | 0.005 |
| RRIRVRPPRLPRPRPRPEMSPRP | 0.0206 |
| RRIRQRPPRLPRPRPRPQMIPRP | -0.0977 |
| RRIRSRPPRLPRPRPRPYQCPRP | -0.00419 |
| RRIRRRPPRLPRPRPRPWGWPRP | 0.482 |
| RRIRIRPPRLPRPRPRPAPFPRP | 0.271 |
| RRIRNRPPRLPRPRPRPKSPPRP | 0.205 |
| RRIRNRPPRLPRPRPRPVIQPRP | 0.0549 |
| RRIRQRPPRLPRPRPRPENDPRP | -0.0134 |
| RRIRFRPPRLPRPRPRPFHKPRP | -1.02 |
| RRIRFRPPRLPRPRPRPMDDPRP | -0.182 |
| RRIRCRPPRLPRPRPRPNMLPRP | -0.398 |
| RRIRTRPPRLPRPRPRPTMRPRP | 0.867 |
| RRIRPRPPRLPRPRPRPSKHPRP | -0.441 |
| RRIRLRPPRLPRPRPRPMKWPRP | 0.0101 |
| RRIRKRPPRLPRPRPRPKYCPRP | -0.632 |
| RRIRPRPPRLPRPRPRPHGFPRP | -0.21 |
| RRIRIRPPRLPRPRPRPTPFPRP | -0.133 |
| RRIRPRPPRLPRPRPRPAGVPRP | 0.392 |
| RRIRKRPPRLPRPRPRPWETPRP | 0.696 |
| RRIRSRPPRLPRPRPRPFVDPRP | -0.228 |

| Sequence | shrunken log2 fold change |
| --- | --- |
| RRIRPRPPRLPRPRPRPDYHPRP | -0.815 |
| RRIRARPPRLPRPRPRPCCIPRP | 0.13 |
| RRIRKRPPRLPRPRPRPQRQPRP | 0.265 |
| RRIRIRPPRLPRPRPRPPSVPRP | -0.0681 |
| RRIRARPPRLPRPRPRPLPNPRP | 0.286 |
| RRIRKRPPRLPRPRPRPGRLPRP | 0.299 |
| RRIRGRPPRLPRPRPRPAICPRP | 0.555 |
| RRIRYRPPRLPRPRPRPQNSPRP | -0.00968 |
| RRIRYRPPRLPRPRPRPRFSPRP | -0.144 |
| RRIRRRPPRLPRPRPRPANPPRP | 0.364 |
| RRIRARPPRLPRPRPRPVSYPRP | -0.133 |
| RRIRLRPPRLPRPRPRPFTNPRP | 0.0104 |
| RRIRARPPRLPRPRPRPCIRPRP | -0.365 |
| RRIRFRPPRLPRPRPRPIAFPRP | 0.0375 |
| RRIRCRPPRLPRPRPRPCQVPRP | -0.342 |
| RRIRCRPPRLPRPRPRPRDYPRP | 0.00558 |
| RRIRSRPPRLPRPRPRPIVMPRP | 0.0137 |
| RRIRARPPRLPRPRPRPNYFPRP | -0.251 |
| RRIRIRPPRLPRPRPRPEHHPRP | -0.206 |
| RRIRWRPPRLPRPRPRPHFIPRP | -0.349 |
| RRIRLRPPRLPRPRPRPSSYPRP | -0.542 |
| RRIRDRPPRLPRPRPRPDLHPRP | -0.0715 |
| RRIRSRPPRLPRPRPRPAFMPRP | 0.309 |
| RRIRSRPPRLPRPRPRPDDTPRP | -0.144 |
| RRIRCRPPRLPRPRPRPNWIPRP | -0.419 |

| Sequence | shrunken log2 fold change |
| --- | --- |
| RRIRYRPPRLPRPRPRPTHLPRP | -0.0864 |
| RRIRQRPPRLPRPRPRPQFAPRP | -0.00983 |
| RRIRNRPPRLPRPRPRPATDPRP | 0.14 |
| RRIRGRPPRLPRPRPRPPHRPRP | 0.81 |
| RRIRERPPRLPRPRPRPESVPRP | -0.316 |
| RRIRFRPPRLPRPRPRPGNVPRP | 0.0145 |
| RRIRKRPPRLPRPRPRPTHGPRP | 0.547 |
| RRIRYRPPRLPRPRPRPRQTPRP | -0.0574 |
| RRIRIRPPRLPRPRPRPYPWPRP | -1.06 |
| RRIRYRPPRLPRPRPRPKPKPRP | 0.394 |
| RRIRQRPPRLPRPRPRPDCAPRP | 0.0476 |
| RRIRTRPPRLPRPRPRPWINPRP | 0.0189 |
| RRIRQRPPRLPRPRPRPHSRPRP | -0.17 |
| RRIRRRPPRLPRPRPRPLRTPRP | 1.41 |
| RRIRRRPPRLPRPRPRPRERPRP | 1.02 |
| RRIRNRPPRLPRPRPRPQNAPRP | -0.011 |
| RRIRWRPPRLPRPRPRPASMPRP | -0.0478 |
| RRIRQRPPRLPRPRPRPMAAPRP | 0.127 |
| RRIRQRPPRLPRPRPRPSSVPRP | 0.00784 |
| RRIRQRPPRLPRPRPRPCDRPRP | -0.0449 |
| RRIRLRPPRLPRPRPRPYEYPRP | -0.132 |
| RRIRPRPPRLPRPRPRPLWMPRP | 0.0937 |
| RRIRNRPPRLPRPRPRPDQHPRP | -0.34 |
| RRIRHRPPRLPRPRPRPGNHPRP | -0.161 |
| RRIRCRPPRLPRPRPRPITVPRP | -0.222 |

| Sequence | shrunken log2 fold change |
| --- | --- |
| RRIRERPPRLPRPRPRPDSHPRP | -0.6 |
| RRIRWRPPRLPRPRPRPSGQPRP | -0.0599 |
| RRIRYRPPRLPRPRPRPLAKPRP | 0.19 |
| RRIRRRPPRLPRPRPRPKGPPRP | 0.465 |
| RRIRARPPRLPRPRPRPPAHPRP | 0.912 |
| RRIRPRPPRLPRPRPRPRCTPRP | 0.753 |
| RRIRWRPPRLPRPRPRPKMSPRP | 0.163 |
| RRIRDRPPRLPRPRPRPEWMPRP | 0.764 |
| RRIRTRPPRLPRPRPRPYAEPRP | -0.612 |
| RRIRKRPPRLPRPRPRPADCPRP | 0.117 |
| RRIRTRPPRLPRPRPRPFSSPRP | -0.399 |
| RRIRNRPPRLPRPRPRPCVHPRP | -0.0018 |
| RRIRERPPRLPRPRPRPGNTPRP | -0.089 |
| RRIRIRPPRLPRPRPRPMMNPRP | -0.442 |
| RRIRWRPPRLPRPRPRPPIMPRP | 0.271 |
| RRIRVRPPRLPRPRPRPQCNPRP | -0.449 |
| RRIRHRPPRLPRPRPRPVWDPRP | -0.0821 |
| RRIRLRPPRLPRPRPRPSLVPRP | -0.0388 |
| RRIRWRPPRLPRPRPRPNNTPRP | -0.587 |
| RRIRIRPPRLPRPRPRPIAFPRP | -0.0789 |
| RRIRMRPPRLPRPRPRPNEAPRP | 0.326 |
| RRIRWRPPRLPRPRPRPYARPRP | 0.101 |
| RRIRDRPPRLPRPRPRPYTYPRP | 0.0218 |
| RRIRERPPRLPRPRPRPGCPPRP | 0.0137 |
| RRIRQRPPRLPRPRPRPFNRPRP | -0.0328 |
